# B1: PsCYCD mutant probe (cold-mP) (dsDNA)
# DNA 1: TTTGGCCGACCGGGGTTAA
# DNA 2: TTAACCCCGGTCGGCCAAA
# B2: PsEBB3 CArG probe (dsDNA)
# DNA 1: ATGTCCATAATTTAGGCCTA
# DNA 2: TAGGCCTAAATTATGGACAT
# B3: PsCYCD CArG probe (dsDNA)
# DNA 1: TTTGGCCAATTTTGGTTAA
# DNA 2: TTAACCAAAATTGGCCAAA
# What was measured:
# GST-PsAGL9 [1] = target: T1, GST-PsAGL9 (Paeonia suffruticosa, UniProt V9I0Q3 1-243); assay: competition; 10x and 20x cold mutant probe did not affect signal; Chemiluminescent EMSA Kit (Beyotime); buffer, salt, pH and temperature not stated; conditions: protein: recombinant; tags: GST (pGEX-4T-1)
# T1 sequence (V9I0Q3 entry or part of it): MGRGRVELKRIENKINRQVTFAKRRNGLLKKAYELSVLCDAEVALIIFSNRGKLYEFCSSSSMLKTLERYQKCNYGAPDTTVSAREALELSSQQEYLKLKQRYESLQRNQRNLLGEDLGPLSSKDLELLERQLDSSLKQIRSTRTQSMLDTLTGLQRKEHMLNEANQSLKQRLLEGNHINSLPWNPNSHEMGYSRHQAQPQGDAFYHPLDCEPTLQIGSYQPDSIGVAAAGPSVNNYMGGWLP
# GST-PsAGL9 [2] = target: T1, GST-PsAGL9; assay: EMSA; Chemiluminescent EMSA Kit (Beyotime); buffer, salt, pH and temperature not stated; conditions: protein: recombinant; tags: GST (pGEX-4T-1); label: biotin
# GST-PsAGL9 [3] = target: T1, GST-PsAGL9; assay: EMSA; 10x and 20x cold probe weakened signal; Chemiluminescent EMSA Kit (Beyotime); buffer, salt, pH and temperature not stated; conditions: protein: recombinant; tags: GST (pGEX-4T-1); label: biotin; blunt
binder,measurement,setting,value
B1,binding result,GST-PsAGL9 [1],no binding
B2,binding result,GST-PsAGL9 [2],binds
B3,binding result,GST-PsAGL9 [3],binds

# — publication PMC11997425, “MADS-domain transcription factor AGAMOUS LIKE-9 participates in the gibberellin pathway to promote bud dormancy release of tree peony”
